Reference: paper PMC6527163, “Proteomic discovery of substrates of the cardiovascular protease ADAMTS7” (The Journal of Biological Chemistry, 2019)

T1: ADAMTS7-T8 (human, UniProt Q9UKP4 237-1630)
T1 construct: signal peptide in the construct; human ADAMTS7 cDNA including the native signal peptide, truncated after Pro-1630 (T8); The construct is made as a zymogen; The stated enzyme concentrations are active protease, found by active-site titration with TIMP-4; also called purified ADAMTS7-T8; source: HEK cells stably expressing ADAMTS7-T8, conditioned medium, purified (anion exchange chromatography, gel …)
T1 sequence (looked up): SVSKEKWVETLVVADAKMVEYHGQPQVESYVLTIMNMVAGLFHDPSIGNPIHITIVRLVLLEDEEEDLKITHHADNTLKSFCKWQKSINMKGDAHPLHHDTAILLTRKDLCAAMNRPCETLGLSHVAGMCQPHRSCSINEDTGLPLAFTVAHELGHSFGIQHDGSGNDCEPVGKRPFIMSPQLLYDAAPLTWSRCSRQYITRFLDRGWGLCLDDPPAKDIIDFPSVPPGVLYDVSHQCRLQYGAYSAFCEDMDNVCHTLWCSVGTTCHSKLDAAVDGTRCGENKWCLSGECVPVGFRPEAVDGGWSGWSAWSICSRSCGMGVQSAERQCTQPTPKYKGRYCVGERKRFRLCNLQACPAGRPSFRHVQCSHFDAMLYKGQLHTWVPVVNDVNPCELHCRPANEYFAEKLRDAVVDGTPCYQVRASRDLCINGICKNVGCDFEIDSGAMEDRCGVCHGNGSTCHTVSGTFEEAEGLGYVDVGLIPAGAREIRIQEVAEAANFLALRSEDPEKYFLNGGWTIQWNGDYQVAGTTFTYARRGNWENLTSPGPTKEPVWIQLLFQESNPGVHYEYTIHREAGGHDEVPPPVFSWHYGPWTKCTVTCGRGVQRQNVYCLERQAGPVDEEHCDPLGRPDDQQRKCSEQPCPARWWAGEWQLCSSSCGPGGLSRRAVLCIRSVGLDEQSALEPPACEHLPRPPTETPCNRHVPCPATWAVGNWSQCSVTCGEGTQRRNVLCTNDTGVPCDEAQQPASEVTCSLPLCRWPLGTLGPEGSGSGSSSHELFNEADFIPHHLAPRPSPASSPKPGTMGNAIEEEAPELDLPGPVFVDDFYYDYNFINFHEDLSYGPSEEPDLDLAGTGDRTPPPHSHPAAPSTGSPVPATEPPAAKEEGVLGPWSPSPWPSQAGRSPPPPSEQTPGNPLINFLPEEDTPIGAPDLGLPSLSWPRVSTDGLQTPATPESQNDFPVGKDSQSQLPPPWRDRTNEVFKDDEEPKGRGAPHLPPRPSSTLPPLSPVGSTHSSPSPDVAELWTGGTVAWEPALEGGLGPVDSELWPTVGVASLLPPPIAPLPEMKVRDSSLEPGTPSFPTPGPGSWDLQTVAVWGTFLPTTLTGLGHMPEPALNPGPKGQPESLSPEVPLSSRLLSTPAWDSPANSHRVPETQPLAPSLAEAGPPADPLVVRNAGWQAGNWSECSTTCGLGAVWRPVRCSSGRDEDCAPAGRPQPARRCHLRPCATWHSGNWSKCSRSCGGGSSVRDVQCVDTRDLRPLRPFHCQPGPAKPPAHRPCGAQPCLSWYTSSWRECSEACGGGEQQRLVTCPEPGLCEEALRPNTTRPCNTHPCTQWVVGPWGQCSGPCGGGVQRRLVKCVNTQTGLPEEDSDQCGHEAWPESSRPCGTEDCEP


Biological target: T1, ADAMTS7-T8
Experiment: enzyme inhibition assay (densitometry of LTBP4S-A cleavage on SDS-PAGE/Coomassie Blue); apparent Ki; TIMP (1.75-60 nM) pre-incubated with ADAMTS7-T8 for 1 h at 37 °C, then 18 nM ADAMTS7 and 10 μM LTBP4S-A for 17 h at 37 °C; 20 mM Tris, pH 7.5, 150 mM NaCl, 10 mM CaCl2
Conditions: both partners purified

| Binder | Ki |
| --- | --- |
| TIMP-4 (natural protein, human, UniProt Q99727 30-224, looked up, recombinant human TIMP-4 (R&D Systems); No catalogue number or tags are stated; source: bought: R&D Systems (recombinant human)) CSCAPAHPQQHICHSALVIRAKISSEKVVPASADPADTEKMLRYEIKQIKMFKGFEKVKDVQYIYTPFDSSLCGVKLEANSQKQYLLTGQVLSDGKVFIHLCNYIEPWEDLSLVQRESLNHHYHLNCGCQITTCYTVPCTISAPNECLWTDWLLERKLYGYQAQHYVCMKHVDGTCSWYRGHLPLRKEFVDIVQP | 13 nM |
| TIMP-3 (natural protein, human, UniProt P35625 24-211, looked up, recombinant human TIMP-3 (R&D Systems); No catalogue number or tags are stated; source: bought: R&D Systems (recombinant human)) CTCSPSHPQDAFCNSDIVIRAKVVGKKLVKEGPFGTLVYTIKQMKMYRGFTKMPHVQYIHTEASESLCGLKLEVNKYQYLLTGRVYDGKMYTGLCNFVERWDQLTLSQRKGLNYRYHLGCNCKIKSCYYLPCFVTSKNECLWTDMLSNFGYPGYQSKHYACIRQKGGYCSWYRGWAPPDKSIINATDP | 49 nM |
